Assay results published in patent US20250388666A1 (BRIGHAM AND WOMEN S HOSPITAL, published 2025).
Where two headings read alike, the source gives them in different places.

T1: CEACAM1 (Sino Biological) (human, UniProt P13688 35-428, limits assumed)
T1 construct: may be the same as CEACAM1-HIS; also called hCEACAM1; biotinylated soluble CEACAM1
T1 sequence: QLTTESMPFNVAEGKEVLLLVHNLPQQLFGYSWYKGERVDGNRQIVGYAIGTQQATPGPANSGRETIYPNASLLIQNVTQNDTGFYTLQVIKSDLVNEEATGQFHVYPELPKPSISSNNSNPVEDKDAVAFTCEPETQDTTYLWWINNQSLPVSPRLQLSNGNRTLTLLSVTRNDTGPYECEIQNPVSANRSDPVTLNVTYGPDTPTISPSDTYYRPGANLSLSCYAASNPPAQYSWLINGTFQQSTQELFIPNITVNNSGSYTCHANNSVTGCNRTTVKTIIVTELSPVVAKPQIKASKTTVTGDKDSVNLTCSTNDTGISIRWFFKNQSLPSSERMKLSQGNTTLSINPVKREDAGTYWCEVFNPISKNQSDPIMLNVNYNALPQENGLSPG

T2: CEACAM5 (Sino Biological) (human, UniProt P06731 35-685)
T2 construct: also called hCEACAM5
T2 sequence (looked up): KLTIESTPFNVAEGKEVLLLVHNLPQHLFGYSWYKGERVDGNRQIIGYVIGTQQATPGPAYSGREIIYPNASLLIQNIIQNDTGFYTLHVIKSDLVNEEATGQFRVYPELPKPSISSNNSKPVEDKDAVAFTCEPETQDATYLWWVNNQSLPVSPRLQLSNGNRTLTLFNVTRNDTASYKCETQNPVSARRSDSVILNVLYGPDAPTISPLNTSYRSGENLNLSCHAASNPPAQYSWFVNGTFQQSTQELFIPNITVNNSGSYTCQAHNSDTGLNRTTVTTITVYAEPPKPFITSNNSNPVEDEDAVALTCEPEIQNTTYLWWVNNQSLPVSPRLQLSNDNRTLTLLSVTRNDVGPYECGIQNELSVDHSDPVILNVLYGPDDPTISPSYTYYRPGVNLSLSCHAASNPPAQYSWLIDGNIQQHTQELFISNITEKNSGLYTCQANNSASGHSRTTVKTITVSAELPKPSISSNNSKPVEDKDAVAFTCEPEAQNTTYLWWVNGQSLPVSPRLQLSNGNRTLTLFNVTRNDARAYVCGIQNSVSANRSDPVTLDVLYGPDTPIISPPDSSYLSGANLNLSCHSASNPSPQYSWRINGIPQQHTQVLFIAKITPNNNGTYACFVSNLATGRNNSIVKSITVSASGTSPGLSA

T3: CEACAM3 (Sino Biological) (human, UniProt P40198 35-155, limits assumed)
T3 construct: also called hCEACAM3
T3 sequence (looked up): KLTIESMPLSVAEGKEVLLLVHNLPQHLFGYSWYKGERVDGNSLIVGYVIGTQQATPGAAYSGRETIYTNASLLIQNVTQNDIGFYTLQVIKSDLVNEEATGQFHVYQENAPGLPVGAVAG

T4: CEACAM6 (Sino Biological) (human, UniProt P40199 35-320)
T4 construct: also called hCEACAM6
T4 sequence (looked up): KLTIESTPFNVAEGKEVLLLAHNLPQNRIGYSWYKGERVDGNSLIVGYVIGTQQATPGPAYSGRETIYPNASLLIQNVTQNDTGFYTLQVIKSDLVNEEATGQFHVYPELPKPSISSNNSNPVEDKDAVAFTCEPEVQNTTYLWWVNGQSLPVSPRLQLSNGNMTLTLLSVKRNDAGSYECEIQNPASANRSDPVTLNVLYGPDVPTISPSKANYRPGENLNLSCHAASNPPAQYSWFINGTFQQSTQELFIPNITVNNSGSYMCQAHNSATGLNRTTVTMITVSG

T5: CEACAM1 on transfected HeLa cells (Homo sapiens (Human), UniProt P13688 35-526)
T5 construct: also called C1
T5 sequence: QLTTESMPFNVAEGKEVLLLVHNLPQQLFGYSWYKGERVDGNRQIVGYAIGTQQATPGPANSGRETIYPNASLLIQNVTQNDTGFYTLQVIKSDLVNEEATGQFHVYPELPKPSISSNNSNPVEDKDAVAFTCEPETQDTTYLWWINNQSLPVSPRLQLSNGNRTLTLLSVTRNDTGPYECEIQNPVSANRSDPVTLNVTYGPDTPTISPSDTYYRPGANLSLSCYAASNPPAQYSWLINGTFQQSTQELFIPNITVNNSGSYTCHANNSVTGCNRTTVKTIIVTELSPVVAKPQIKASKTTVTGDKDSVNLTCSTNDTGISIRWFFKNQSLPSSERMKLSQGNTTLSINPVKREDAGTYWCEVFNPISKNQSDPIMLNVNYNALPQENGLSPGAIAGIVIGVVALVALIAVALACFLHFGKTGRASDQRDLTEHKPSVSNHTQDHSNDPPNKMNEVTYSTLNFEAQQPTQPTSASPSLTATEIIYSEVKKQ

T6: CEACAM5 on transfected HeLa cells (UniProt P06731 35-685)
T6 construct: whole, on cells; also called C5
T6 sequence (looked up): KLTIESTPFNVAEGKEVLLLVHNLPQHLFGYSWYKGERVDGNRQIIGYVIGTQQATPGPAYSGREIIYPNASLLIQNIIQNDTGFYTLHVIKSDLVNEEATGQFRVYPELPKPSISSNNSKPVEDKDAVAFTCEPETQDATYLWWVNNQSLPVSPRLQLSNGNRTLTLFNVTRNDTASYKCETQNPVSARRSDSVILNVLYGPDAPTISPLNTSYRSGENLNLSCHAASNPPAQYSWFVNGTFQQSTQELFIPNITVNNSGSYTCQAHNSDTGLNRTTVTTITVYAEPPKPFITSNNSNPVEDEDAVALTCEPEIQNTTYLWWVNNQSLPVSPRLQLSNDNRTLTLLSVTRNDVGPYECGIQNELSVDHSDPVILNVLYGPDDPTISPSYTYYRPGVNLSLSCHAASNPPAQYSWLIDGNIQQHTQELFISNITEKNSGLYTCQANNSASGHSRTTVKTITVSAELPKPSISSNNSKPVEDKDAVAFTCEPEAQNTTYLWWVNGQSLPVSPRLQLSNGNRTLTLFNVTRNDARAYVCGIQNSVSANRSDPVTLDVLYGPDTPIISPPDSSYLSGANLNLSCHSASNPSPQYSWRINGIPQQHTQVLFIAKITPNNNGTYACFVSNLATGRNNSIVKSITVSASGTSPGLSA


Columns and labels:
[1] = target: T1, CEACAM1 (Sino Biological); experiment: SPR single-cycle
Procedure, shortened: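 Humanized affinity-matured IgGs from crude supernatants captured on Protein A to ~100 RU, with CEACAM1 analyte injected at 25–100 nM (three-point, two-fold) in HBS-P+ without regeneration. 200 s association per injection, 300 s single dissociation; reference-channel and blank subtracted.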

[2] = target: T1, CEACAM1 (Sino Biological); experiment: SPR multi-cycle, IgG on Protein A
Procedure: Multi-cycle kinetics analysis was performed on the twelve lead antibodies using a Biacore T200 instrument running Biacore T200 Evaluation Software V3.0.1 (Uppsala, Sweden) to establish an accurate affinity for CEACAM1. The purified antibodies were diluted to a concentration of […] in HBS-P+. At the start of each cycle, each antibody was captured on the Protein A surface to give an RL of ˜100 RU. Following capture, the surface was allowed to stabilize. Kinetic data was obtained using a flow rate of […] to minimize any potential mass transfer effects. For the kinetics analysis, CEACAM1 was used. Multiple repeats of the blank ([…]) and a repeat of a single concentration of the analyte were programmed into the kinetic run in order to check the stability of both the surface and analyte over the kinetic cycles. For kinetic analysis, a two-fold dilution range was selected from 200 to 3.125 nM CEACAM1. The association phase of CEACAM1 was monitored for 275 seconds and the dissociation phase was measured for 250 seconds. Regeneration of the Protein A surface was conducted using two injections of 10 mM glycine-HCL pH 1.5 at the end of each cycle.
The signal from the reference channel Fc1 was subtracted from that of Fc2, Fc3 and Fc4 to correct for differences in non-specific binding to a reference surface, and a global Rmax parameter was used in the 1-to-1 binding model. The relative KD was calculated by dividing the KD of the RSB02 Parent by that of the humanized and affinity matured variants on the same chip.

[3] = target: T2, CEACAM5 (Sino Biological); experiment: binding ELISA on plate-coated CEACAM (0.5 µg/mL); antibody at 1.67, 0.062 and 0.0069 µg/mL; signal as % of parent IgG on CEACAM1 at 1.67 µg/mL on the same plate
[4] = target: T3, CEACAM3 (Sino Biological); experiment: as above
[5] = target: T4, CEACAM6 (Sino Biological); experiment: as above
[6] = target: T2, CEACAM5 (Sino Biological); experiment: as above; remark: listed apart in the source
[7] = target: T5, CEACAM1 on transfected HeLa cells; experiment: flow cytometry, transfected HeLa
Procedure: (§1) Binding selectivity of the selected antibody variants was assessed by flow cytometry using HeLa cells transfected with vectors expressing CEACAM1, CEACAM5, and CEACAM6, respectively. The resulting cells were used for flow cytometry experiments and were cultured at 37° C., 5.0% CO₂ in Dulbecco's modified Eagle's medium supplemented with 10% fetal bovine serum, penicillin (100 U/ml) and dihydrostreptomycin ([…]). Cell lines were stained with the indicated antibodies followed by fluorochrome-conjugated monoclonal antibody specific for the indicated antibody isotypes such as human IgG4 or mouse IgG1 together with viable dye (DAPI). Data were acquired with a Cytoflex flow cytometer ([…]) and analyzed with FlowJo software (TreeStar, V7.6.5 for Windows).

[8] = target: T6, CEACAM5 on transfected HeLa cells; experiment: flow cytometry, transfected HeLa
Procedure: as §1

Row | Binder | Kd [1] | fold better than Parent (KD) [1] | Kd [2] | koff [2] | kon [2] | relative KD to Parent [2] | binding result [3] | binding result [4] | binding result [5] | binding result [6] | relative fluorescence intensity [7] | relative fluorescence intensity [8]
1 | Parent VH/L4#2 (antibody, IgG4, V domains shown, IgG4 S241P, kappa; also called VHp/L4 #2; VH2 N56Q / 4#2) VH: EVQLLESGGGLVQPGGSLRLSCAASGFSFSDYYLYWVRQAPGKGLEWVATISVGGGQTSYADSVKGRFTISRDNSKNTLYLQMNSLRAEDTAMYYCTRGLYYGPAWFAYWGQGTLVTVSS VL: DIVMTQSPDSLAVSLGERATINCKSSQSLLNSANQKNYLAWYQQKPGQPPKLLIYFASTRESGVPDRFSGSGSGTDFTLTISSLQAEDVAVYYCQSHYPYPYTFGGGTKVEIK | 163 nM | 3.38 fold | 147 nM | 0.00437 s⁻¹ | 29800 M⁻¹ s⁻¹ | 1.3 ratio | – | no binding (tested: 1.67 µg/mL) | no binding (tested: 1.67 µg/mL) | – | – | –
2 | VH1 N56Q/VK4 S27(f)A (antibody, human IgG4, V domains shown, aglycosylated humanized variant; human IgG4) VH: EVQLLESGGGLVQPGGSLRLSCAASGFSFSDYYLYWVRQAPGKGLEWVATISVGGGQTSYPDSVKGRFTISRDNSKNTLYLQMNSLRAEDTAMYYCTRGLYYGPAWFAYWGQGTLVTVSS VL: not shown | – | – | – | – | – | – | – | – | – | – | 87.1 | 0.0622

Further lines, results first:

Row | Kd [1] | fold better than Parent (KD) [1] | Kd [2] | koff [2] | kon [2] | relative KD to Parent [2] | binding result [3] | binding result [4] | binding result [5] | binding result [6] | relative fluorescence intensity [7] | relative fluorescence intensity [8] | Binder
3 | 27 nM | 5.85 fold | 31.6 nM | 0.00139 s⁻¹ | 44000 M⁻¹ s⁻¹ | 4.15 ratio | binds | – | – | – | – | – | He9/L3 (antibody, IgG4, V domains shown, IgG4 S241P, kappa; also called He9 / 3) VH: EVQLLESGGGLVQPGGSLRLSCAASGFSFSDYYLYWVRQAPGKGLEWVATISVGGGQTSYADSVKGRFTISRDNSKNTLYLQMNSLRAEDTAMYYCARAMYYGPAWFAYWGQGTLVTVSS VL: DIVMTQSPDSLAVSLGERATINCKSSQSLLNSANQKNYLAWYQQKPGQPPKLLIYFASTRESGVPDRFSGSGSGTDFTLTISSLQAEDVAVYYCQSHFPFPFTFGGGTKVEIK
4 | 33 nM | 4.88 fold | 40.9 nM | 0.0015 s⁻¹ | 36700 M⁻¹ s⁻¹ | 4.55 ratio | binds | – | – | – | – | – | He9/L17 (antibody, IgG4, V domains shown, IgG4 S241P, kappa; also called He9 / 17) VH: EVQLLESGGGLVQPGGSLRLSCAASGFSFSDYYLYWVRQAPGKGLEWVATISVGGGQTSYADSVKGRFTISRDNSKNTLYLQMNSLRAEDTAMYYCARAMYYGPAWFAYWGQGTLVTVSS VL: DIVMTQSPDSLAVSLGERATINCKSSQSLLNSANQKNYLAWYQQKPGQPPKLLIYFASTRESGVPDRFSGSGSGTDFTLTISSLQAEDVAVYYCQSHYPYPYTFGGGTKVEIK
5 | 56 nM | 2.83 fold | 101 nM | 0.00362 s⁻¹ | 35700 M⁻¹ s⁻¹ | 1.84 ratio | – | no binding (tested: 1.67 µg/mL) | no binding (tested: 1.67 µg/mL) | – | – | – | Parent VH/L18 (antibody, IgG4, V domains shown, IgG4 S241P, kappa; also called VHp/L18; VH2 N56Q / 18) VH: EVQLLESGGGLVQPGGSLRLSCAASGFSFSDYYLYWVRQAPGKGLEWVATISVGGGQTSYADSVKGRFTISRDNSKNTLYLQMNSLRAEDTAMYYCTRGLYYGPAWFAYWGQGTLVTVSS VL: DIVMTQSPDSLAVSLGERATINCKSSQSLLNSANQKNYLAWYQQKPGQPPKLLIYFASTRESGVPDRFSGSGSGTDFTLTISSLQAEDVAVYYCQSHFPYPFTFGGGTKVEIK
6 | 57 nM | 9.71 fold | 33.7 nM | 0.0013 s⁻¹ | 38600 M⁻¹ s⁻¹ | 3.89 ratio | – | – | – | binds | – | – | He9/L4#2 (antibody, IgG4, V domains shown, IgG4 S241P, kappa) VH: EVQLLESGGGLVQPGGSLRLSCAASGFSFSDYYLYWVRQAPGKGLEWVATISVGGGQTSYADSVKGRFTISRDNSKNTLYLQMNSLRAEDTAMYYCARAMYYGPAWFAYWGQGTLVTVSS VL: DIVMTQSPDSLAVSLGERATINCKSSQSLLNSANQKNYLAWYQQKPGQPPKLLIYFASTRESGVPDRFSGSGSGTDFTLTISSLQAEDVAVYYCQSHYPYPYTFGGGTKVEIK
